Results published in PMC12145424, “Structural insights into tRNA recognition of the human FTSJ1-THADA complex” (Communications Biology, 2025).

Biological target: T1, Human THADA (FLAG- and streptavidin-binding-sequence-tagged, co-expressed with FTSJ1) (human, UniProt Q6YHU6 1-1953)
T1 construct: THADA, human; gene PCR-amplified and cloned into a modified pcDNA3.4 vector; no TEV cleavage step is described; also called Trm732 (yeast name); not shown: FLAG, N-terminal, kept
Assay: SEC; FTSJ1 and THADA co-expressed in HEK293F, purified on anti-FLAG beads, then HiLoad 16/600 Superdex 200pg in 20 mM Tris-HCl pH 7.5, 150 mM NaCl, 2 mM DTT; fractions analysed by SDS-PAGE
Details: both partners purified

T1 sequence (Q6YHU6 whole entry): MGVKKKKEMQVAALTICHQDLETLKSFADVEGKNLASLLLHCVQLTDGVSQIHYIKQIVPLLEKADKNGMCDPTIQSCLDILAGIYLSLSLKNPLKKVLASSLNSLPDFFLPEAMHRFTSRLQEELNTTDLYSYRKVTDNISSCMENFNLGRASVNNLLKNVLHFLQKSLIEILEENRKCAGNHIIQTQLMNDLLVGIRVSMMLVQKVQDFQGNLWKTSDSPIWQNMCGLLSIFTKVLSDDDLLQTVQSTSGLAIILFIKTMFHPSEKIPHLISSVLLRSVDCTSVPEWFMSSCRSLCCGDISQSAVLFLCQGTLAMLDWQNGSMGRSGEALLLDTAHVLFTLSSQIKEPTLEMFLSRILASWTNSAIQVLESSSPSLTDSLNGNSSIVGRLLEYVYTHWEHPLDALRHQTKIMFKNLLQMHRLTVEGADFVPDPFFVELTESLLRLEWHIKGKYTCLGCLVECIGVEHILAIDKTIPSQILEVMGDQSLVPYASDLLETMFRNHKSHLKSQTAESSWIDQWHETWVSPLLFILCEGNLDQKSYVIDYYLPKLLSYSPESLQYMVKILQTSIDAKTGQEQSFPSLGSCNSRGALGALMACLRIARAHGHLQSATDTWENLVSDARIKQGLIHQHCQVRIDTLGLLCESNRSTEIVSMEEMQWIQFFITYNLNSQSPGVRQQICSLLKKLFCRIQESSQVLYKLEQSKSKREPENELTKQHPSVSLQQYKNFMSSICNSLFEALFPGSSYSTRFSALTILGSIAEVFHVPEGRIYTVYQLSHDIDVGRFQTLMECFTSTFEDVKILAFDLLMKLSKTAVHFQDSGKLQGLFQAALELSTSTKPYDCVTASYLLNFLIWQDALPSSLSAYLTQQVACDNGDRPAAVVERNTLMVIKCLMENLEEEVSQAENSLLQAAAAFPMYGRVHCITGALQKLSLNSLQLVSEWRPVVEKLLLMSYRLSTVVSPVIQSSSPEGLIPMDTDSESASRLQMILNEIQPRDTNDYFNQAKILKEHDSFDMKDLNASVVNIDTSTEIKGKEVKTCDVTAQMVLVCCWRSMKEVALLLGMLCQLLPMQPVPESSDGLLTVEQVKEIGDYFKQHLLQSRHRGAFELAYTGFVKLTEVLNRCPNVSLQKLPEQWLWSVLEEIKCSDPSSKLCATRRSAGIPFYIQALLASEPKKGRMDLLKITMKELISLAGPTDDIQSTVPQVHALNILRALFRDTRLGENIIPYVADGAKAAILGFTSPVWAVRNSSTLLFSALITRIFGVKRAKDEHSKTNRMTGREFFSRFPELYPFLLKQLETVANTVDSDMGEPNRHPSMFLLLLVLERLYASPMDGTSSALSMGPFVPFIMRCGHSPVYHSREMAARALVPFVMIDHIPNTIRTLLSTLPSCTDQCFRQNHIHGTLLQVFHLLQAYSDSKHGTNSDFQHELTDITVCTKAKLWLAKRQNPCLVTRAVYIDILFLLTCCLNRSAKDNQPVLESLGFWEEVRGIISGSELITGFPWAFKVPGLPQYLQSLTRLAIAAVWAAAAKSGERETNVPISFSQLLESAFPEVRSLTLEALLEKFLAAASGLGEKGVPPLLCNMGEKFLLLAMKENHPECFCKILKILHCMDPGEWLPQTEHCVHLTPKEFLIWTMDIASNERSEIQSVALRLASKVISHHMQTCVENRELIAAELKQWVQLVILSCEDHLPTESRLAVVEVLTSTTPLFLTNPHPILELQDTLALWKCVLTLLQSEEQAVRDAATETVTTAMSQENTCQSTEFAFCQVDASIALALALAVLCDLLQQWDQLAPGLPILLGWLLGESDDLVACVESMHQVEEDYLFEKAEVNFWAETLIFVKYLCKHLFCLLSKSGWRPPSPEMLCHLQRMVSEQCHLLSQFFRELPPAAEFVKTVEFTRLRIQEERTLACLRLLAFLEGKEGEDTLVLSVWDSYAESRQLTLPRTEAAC

B1: Human FTSJ1 (FLAG-tagged, co-expressed with THADA) (enzyme)
chain: MGRTSKDKRDVYYRLAKENGWRARSAFKLLQLDKEFQLFQGVTRAVDLCAAPGSWSQVLSQKIGGQGSGHVVAVDLQAMAPLPGVVQIQGDITQLSTAKEIIQHFKGCPADLVVCDGAPDVTGLHDVDEYMQAQLLLAALNIATHVLKPGGCFVAKIFRGRDVTLLYSQLQVFFSSVLCAKPRSSRNSSIEAFAVCQGYDPPEGFIPDLSKPLLDHSYDPDFNQLDGPTRIIVPFVTCGDLSSYDSDRSYPLDLEGGSEYKYTPPTQPPISPPYQEACTLKRKGQLAKEIRPQDCPISRVDTFPQPLAAPQCHTLLAPEMEDNEMSCSP
notes: FTSJ1, human; gene PCR-amplified and cloned into a modified pcDNA3.4 vector; no TEV cleavage step is described in the purification; also called Trm7 (yeast name); not shown: FLAG, N-terminal, kept
Q: Does B1 bind?
A: Result: binds
